1 molecule from patent publication US20250122298A1 (published 2025) can be followed below.

For one experiment, the target named is recombinant human TfR-1 (human, UniProt P02786 89-760). The experiment is described as follows: ELISA. For orientation: An ELISA detects its analyte on a solid surface through an enzyme-linked reagent.
In experiment [1] the target is T1, recombinant cynomolgus TfR-1 (cynomolgus, UniProt H9EXL1 89-760).
T1 chain: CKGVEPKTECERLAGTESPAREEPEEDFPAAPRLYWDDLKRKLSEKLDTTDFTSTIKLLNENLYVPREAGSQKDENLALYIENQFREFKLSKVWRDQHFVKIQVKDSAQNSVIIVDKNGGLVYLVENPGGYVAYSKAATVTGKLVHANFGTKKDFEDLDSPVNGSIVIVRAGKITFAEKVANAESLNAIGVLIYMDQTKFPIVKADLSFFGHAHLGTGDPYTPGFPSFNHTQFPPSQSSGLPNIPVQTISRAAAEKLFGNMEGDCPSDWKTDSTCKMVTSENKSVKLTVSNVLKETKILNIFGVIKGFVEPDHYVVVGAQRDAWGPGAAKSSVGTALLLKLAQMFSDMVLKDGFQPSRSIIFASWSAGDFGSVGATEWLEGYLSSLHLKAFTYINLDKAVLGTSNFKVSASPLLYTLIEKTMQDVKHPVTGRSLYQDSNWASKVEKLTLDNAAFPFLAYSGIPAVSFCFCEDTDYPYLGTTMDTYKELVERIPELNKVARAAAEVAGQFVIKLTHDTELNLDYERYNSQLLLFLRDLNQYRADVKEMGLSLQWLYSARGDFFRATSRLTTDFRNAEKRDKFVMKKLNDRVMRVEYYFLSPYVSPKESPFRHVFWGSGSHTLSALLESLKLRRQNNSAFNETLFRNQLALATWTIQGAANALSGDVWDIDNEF
The experiment is described as follows: ELISA.

B1: R2D4 (Fc fusion)
chain: ARVDQTPQTATKETGESLTINCVLRDSNCALSSTYWYRKKSGSTNEENISKGGRKYVETVESGSKSFSLKINDLTVEDSGTYRCNVVGTWCMSWRDVSGDGTVVTVNA
As a reminder, the EC50 is the concentration that produces a half-maximal response. As to B1, the EC50 was 4.1 nM with recombinant human TfR-1 and 3 nM in experiment [1].
